The results in this text go back to PMC4482781 (Nature neuroscience, 2015).

For series [1], the system named is primary human brain endothelial cells (BEC). Description: Colocalization of Aβ–LRP1 complex with PICALM by immunostaining in BEC. The series is classed as cell-based. The conditions noted are these: 250 nM, 30 s.
In series [2] the test system is AD–derived endothelial monolayers. Description: Aβ transcytosis across AD–derived endothelial monolayers. The class given is in vitro ADME, human. The following applies: Aβ40 (1 nM) per Fig. 8b.

With “FAM–Aβ42: 6-carboxyfluorescein-labeled Aβ42, Anaspec catalog # 23526”, in series [1], the “colocalized Aβ–LRP1/PICALM puncta” value was “rapid increase”.
For “Aβ: amyloid β–peptide, isoform not named at the place; Aβ40 (1 nM) by legend of Fig. 8”, the “Aβ transport improved by co–transfer of PICALM and LRP1 mini–gene” value in series [2] is listed as 89%. For the same substance, in series [2] (compared to GFP control), the “Aβ transcytosis improved by adenoviral–mediated transfer of PICALM” value was determined as 63%.
